Measurements reported in patent publication US9212226B2, “Amino acid sequences directed against CXCR4 and other GPCRs and compounds comprising the same” (Ablynx N.V., priority 2008, dated 2015).

Legend:
[1] = biological target: T1, CXCR4 (Homo sapiens, UniProt P61073); test: [125I]-CXCL12 competition binding on membranes from HEK293T cells transiently expressing CXCR4; details: for Displacem. (%) of [125I]-CXCL12 at 0.5 μM: at highest test concentration of 0.5 μM (footnote a: no significant displacement); for displacement of specifically bound [125I]-CXCL12: purified ligands, highest Nanobody test concentration 0.5 μM; for Binding (binding efficiency, competition binding with [125I]-CXCL12): screening of Nanobody clone pools
Procedure: (§1) HEK293T cells were maintained at 37° C. in a humidified 5% CO2, 95% air atmosphere in Dulbecco's modified Eagle's medium (DMEM) containing 2 mM L-glutamine, 50 IU/ml penicillin, 50 μg/ml streptomycin, and 10% (v/v) fetal calf serum. Jurkat cells were cultured in a humidified 5% CO2, 95% air atmosphere in a 1:1 mixture of Dulbecco's modified Eagle's medium (DMEM) and Ham's F12 medium containing 2 mM L-glutamine, 50 IU/ml penicillin, 50 μg/ml streptomycin, and 10% (v/v) fetal calf serum. […] [^125 I]-Labelling— Radiolabeling of Nanobodies with ^125I was performed using the Iodo-gen method (Pierce, Rockford, Ill.) according to the manufacturer's protocol. ^125I-labeled Nanobodies was separated from free iodine (>99%) using a Sephadex G-25 gel filtration column (Amersham Biosciences, Piscataway, N.J.). […] Competition Binding Assays— Membranes from HEK293T cells transiently expressing CXCR3 or CXCR4 were prepared 48 h after transfection as follows. Cells were washed and scraped from the cell culture dishes with ice-cold PBS containing 1 mm EDTA. The scraped cells were pelleted at 1500×g for 10 min at 4° C. The pellet was washed and then resuspended in ice-cold membrane buffer (15 mM Tris, pH 7.5, 1 mM EGTA, 0.3 mM EDTA, and 2 mM MgCl2). The cell suspension was homogenized by 10 strokes at 1200 rpm using a Teflon-glass homogenizer and rotor and further subjected to three freeze-thaw cycles using liquid nitrogen. Membranes were separated by centrifugation at 40,000 g for 25 min at 4° C. The membrane pellet was washed and resuspended in ice-cold Tris-sucrose buffer (20 mM Tris, pH 7.4, and 250 mM sucrose) and frozen in liquid nitrogen. The total protein was determined using a Bradford assay (Bio-Rad). […] Membranes were then harvested over polyethylenimine (0.5%)-treated Whatman GF/C filter plates and washed three times with ice cold binding buffer containing 500 mM NaCl. Plates were counted by liquid scintillation. Inositol Phosphate Accumulation Assay— 24 hours post transfection with pcDNA3.1-CXCR4 and pcDNA1-HA-mG {alpha} qi5 (see Verzijl et al, 2008 supra), 250.000 cells were seeded into 24-wells plates and labelled overnight using inositol-free minimal essential medium supplemented with 1 μCi myo-[2-^3H]-inositol. The next day, the cells were washed once to remove not incorporated myo-[2-^3H]-inositol. […] In agonist experiments, the cells were directly stimulated with test compounds and LiCl (10 mM) in assay buffer for 2 h at 37° C. The stimulation was stopped by aspirating the stimulation medium and adding ice-cold 10 mM formic acid. The accumulated inositol phosphates were isolated by anion exchange chromatography and counted by liquid scintillation. CRE Reporter Gene Assay— HEK239T cells were transfected with pCRE/β-galactosidase (Chen W, Shields T S, Stork P J S, Cone R D (1995) Anal Biochem 226:349-354) and plasmids (pcDEF3 or pcDNA3.1) encoding the indicated receptors. 40,000 transfected cells per well were seeded into 96 well plates and grown in DMEM supplemented with 10% fetal calf serum. The medium was replaced 32 h after transfection by serum-free DMEM supplemented with 0.5% bovine serum albumin and ligands as indicated. […] The β-galactosidase activity was determined by the measurement of absorption at 420 nm with a PowerwaveX340 plate reader (Bio-Tek Instruments Inc., Winooski, Vt.) after incubation with the assay buffer when the OD420 value for forskolin (3 μM) controls reached 0.4-0.6. Chemotaxis Assay— The chemotactic responsiveness of Jurkat 3D cells was assessed using ChemoTx™ plates (Receptor Technologies Ltd., Oxon, UK) in which a upper cell-containing compartment is separated from a lower chemoattractant-containing compartment by a polyvinylpyrollidone-free polycarbonate filter with 5-μm pores. Cells were harvested, washed and resuspended in RPMI containing 0.5% bovine serum albumin and then loaded to 150,000 cells per well in a volume of 25 μl into the upper compartment of the chemotaxis chamber.

[2] = test system: Jurkat cells endogenously expressing CXCR4; test: Chemotaxis assay (ChemoTx plates) with Jurkat cells towards CXCL12; type: cell-based
Procedure: HEK293T cells were maintained at 37° C. in a humidified 5% CO2, 95% air atmosphere in Dulbecco's modified Eagle's medium (DMEM) containing 2 mM L-glutamine, 50 IU/ml penicillin, 50 μg/ml streptomycin, and 10% (v/v) fetal calf serum. Jurkat cells were cultured in a humidified 5% CO2, 95% air atmosphere in a 1:1 mixture of Dulbecco's modified Eagle's medium (DMEM) and Ham's F12 medium containing 2 mM L-glutamine, 50 IU/ml penicillin, 50 μg/ml streptomycin, and 10% (v/v) fetal calf serum. […] [^125 I]-Labelling— Radiolabeling of Nanobodies with ^125I was performed using the Iodo-gen method (Pierce, Rockford, Ill.) according to the manufacturer's protocol. ^125I-labeled Nanobodies was separated from free iodine (>99%) using a Sephadex G-25 gel filtration column (Amersham Biosciences, Piscataway, N.J.). […] Competition Binding Assays— Membranes from HEK293T cells transiently expressing CXCR3 or CXCR4 were prepared 48 h after transfection as follows. Cells were washed and scraped from the cell culture dishes with ice-cold PBS containing 1 mm EDTA. The scraped cells were pelleted at 1500×g for 10 min at 4° C. The pellet was washed and then resuspended in ice-cold membrane buffer (15 mM Tris, pH 7.5, 1 mM EGTA, 0.3 mM EDTA, and 2 mM MgCl2). The cell suspension was homogenized by 10 strokes at 1200 rpm using a Teflon-glass homogenizer and rotor and further subjected to three freeze-thaw cycles using liquid nitrogen. Membranes were separated by centrifugation at 40,000 g for 25 min at 4° C. The membrane pellet was washed and resuspended in ice-cold Tris-sucrose buffer (20 mM Tris, pH 7.4, and 250 mM sucrose) and frozen in liquid nitrogen. The total protein was determined using a Bradford assay (Bio-Rad). Periplasmas (1:10) or ligands were pre-incubated with membranes in binding buffer (50 mM HEPES (pH 7.4), 1 mM CaCl2, 5 mM MgCl2, 100 mM NaCl, 0.5% bovine serum albumin) supplemented with 0.5% BSA for 1 h at 22° C. before the addition of [^125I]-CXCL12 (40 pM) or [^125I]-238D2 (3 nM) or [^125I]-238D4 (3 nM) for additional 2 h at 22° C. […] Membranes were then harvested over polyethylenimine (0.5%)-treated Whatman GF/C filter plates and washed three times with ice cold binding buffer containing 500 mM NaCl. Plates were counted by liquid scintillation. Inositol Phosphate Accumulation Assay— 24 hours post transfection with pcDNA3.1-CXCR4 and pcDNA1-HA-mG {alpha} qi5 (see Verzijl et al, 2008 supra), 250.000 cells were seeded into 24-wells plates and labelled overnight using inositol-free minimal essential medium supplemented with 1 μCi myo-[2-^3H]-inositol. The next day, the cells were washed once to remove not incorporated myo-[2-^3H]-inositol. […] In agonist experiments, the cells were directly stimulated with test compounds and LiCl (10 mM) in assay buffer for 2 h at 37° C. The stimulation was stopped by aspirating the stimulation medium and adding ice-cold 10 mM formic acid. The accumulated inositol phosphates were isolated by anion exchange chromatography and counted by liquid scintillation. CRE Reporter Gene Assay— HEK239T cells were transfected with pCRE/β-galactosidase (Chen W, Shields T S, Stork P J S, Cone R D (1995) Anal Biochem 226:349-354) and plasmids (pcDEF3 or pcDNA3.1) encoding the indicated receptors. 40,000 transfected cells per well were seeded into 96 well plates and grown in DMEM supplemented with 10% fetal calf serum. The medium was replaced 32 h after transfection by serum-free DMEM supplemented with 0.5% bovine serum albumin and ligands as indicated. Following 16 h of ligand incubation, the medium was removed, the cells were lysed in 100 μl of assay buffer (100 mM sodium phosphate buffer at pH 8.0, 4 mM 2-nitrophenol-β-D-pyranoside, 0.5% Triton X-100, 2 mM MgSO4, 0.1 mM MnCl2, and 40 mM β-mercaptoethanol) and incubated at room temperature. […]

[3] = biological target: T1, CXCR4; test: [125I]-238D2 competition binding on membranes from HEK293T cells transiently expressing CXCR4; details: for displacement of [125I]-238D2 from CXCR4: [125I]-238D2 3 nM; for Displacem. (%) of [125I]-238D2 at 0.5 μM: at highest test concentration of 0.5 μM (footnote a: no significant displacement; b: maximum not reached)
Procedure: as §1

[4] = biological target: T1, CXCR4; test: [125I]-238D4 competition binding on membranes from HEK293T cells transiently expressing CXCR4; details: for displacement of [125I]-238D4 from CXCR4: [125I]-238D4 3 nM; for Displacem. (%) of [125I]-238D4 at 0.5 μM: at highest test concentration of 0.5 μM (footnote a: no significant displacement; b: maximum not reached)
Procedure: as §1

[5] = membranes from HEK293T cells transiently expressing CXCR4, mean ± S.E.M.
[6] = membranes from HEK293T cells transiently expressing CXCR4

T1 sequence (P61073 whole entry): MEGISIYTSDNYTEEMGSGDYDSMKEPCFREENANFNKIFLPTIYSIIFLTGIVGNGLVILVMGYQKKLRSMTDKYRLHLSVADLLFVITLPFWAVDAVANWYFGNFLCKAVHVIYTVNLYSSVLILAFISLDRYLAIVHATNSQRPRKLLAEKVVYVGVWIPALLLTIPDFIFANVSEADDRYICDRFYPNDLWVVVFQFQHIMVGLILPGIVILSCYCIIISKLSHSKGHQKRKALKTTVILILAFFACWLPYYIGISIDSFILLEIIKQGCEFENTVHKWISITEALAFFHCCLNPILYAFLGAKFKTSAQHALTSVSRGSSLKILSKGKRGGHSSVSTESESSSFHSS

| Molecule | Rel. potency, relative to monovalent 238D2 ([1]; [125I]-CXCL12 displacement, potency relative to those of monovalent 238D2) | Rel. potency, relative to monovalent 238D4 ([1]; [125I]-CXCL12 displacement, potency relative to those of monovalent 238D4) | increase in affinity to CXCR4 over monovalent 238D2 ([1]; heterobivalent construct) [fold] | increase in affinity to CXCR4 over monovalent 238D4 ([1]; heterobivalent construct) [fold] | Displacem. (%) of [125I]-CXCL12 (maximal displacement), bivalent Nanobodies [1, 5] [%] | pKi, [125I]-CXCL12, bivalent Nanobodies [1, 5] | inhibition of migration of Jurkat cells towards CXCL12 ([2]; 300 pM CXCL12) | Imax (%), Chemotaxis, bivalent Nanobodies ([2]; Jurkat/0.3 nM CXCL12, mean ± S.E.M.) [%] | pKi, antagonism of the chemoattractant effects of CXCL12 ([2]; n=3) | Displacem. (%) of [125I]-CXCL12 at 0.5 μM [1] | displacement of specifically bound [125I]-CXCL12 [1] | Binding (binding efficiency, competition binding with [125I]-CXCL12) [1, 6] | displacement of [125I]-238D2 from CXCR4 [3] | Displacem. (%) of [125I]-238D2 at 0.5 μM [3] | displacement of [125I]-238D4 from CXCR4 [4] | Displacem. (%) of [125I]-238D4 at 0.5 μM [4] | affinity to CXCR4 ([1]; in words) | binding mode at CXCR4 ([3]; displacement of labelled Nanobodies only at ≧100 nM) |
| --- | --- | --- | --- | --- | --- | --- | --- | --- | --- | --- | --- | --- | --- | --- | --- | --- | --- | --- |
| 238D2-20GS-238D4: heterobivalent Nanobody, 238D2 linked to 238D4 by a 20 amino acid GGGGS linker (protein, Nanobody, Nanobody constructs or fragments thereof, heterobivalent Nanobody, 238D2 linked to 238D4 by a 20 amino acid GGGGS linker) EVQLVESGGGLVQTGGSLRLSCAASGFTFSSYAMSWVRQAPGKGLEWVSGIKSSGDSTRYAGSVKGRFTISRDNAKNMLYLQMYSLKPEDTAVYYCAKSRVSRTGLYTYDNRGQGTQVTVSSGGGGSGGGGSGGGGSGGGGSEVQLMESGGGLVQAGGSLRLSCAASGRTFNNYAMGWFRRAPGKEREFVAAITRSGVRSGVSAIYGDSVKDRFTISRDNAKNTLYLQMNSLKPEDTAVYTCAASAIGSGALRRFEYDYSGQGTQVTVSS | 27 | 17 | 27 | 17 | 103 ± 4 | 9.44 ± 0.07 | fully antagonized | 100 ± 4 | 10.19±0.27 | – | – | – | – | – | – | – | – | – |
| 237G7: Nanobody (VHH) raised against human CXCR4, SEQ ID NO: 251 (protein, Nanobody, Nanobody constructs or fragments thereof) VHH: EVQLVESGGGLVQPGGSLRLSCAASSFIGNYHAIVWLRQAPGKELEGVSCITSRDSITYYASFVKGRFTISRDDAKNTVYLQMNNLKPEDTAVYYCAVBTSMTCPTLIVRFNYRGQGTQVTVSS | – | – | – | – | – | – | – | – | – | 0^a % | unable to displace | + (+ = 30-69%) | unable to inhibit | 0^a % | unable to inhibit | 0^a % | – | – |
| 238C5: Nanobody (VHH) raised against human CXCR4, SEQ ID NO: 243 (protein, Nanobody, Nanobody constructs or fragments thereof) VHH: EVQLMESGGGLVQAGGSLRLACAASGFTFEDYAIGWFRKAPGKEREGVSCISGSDGSTTYADSVKGRFTISTDNAKNTVYLEMNSLKPEDTAVYYCAQQYGVGGRVVCPGPYEYDVWGQGTQVTVSS | – | – | – | – | – | – | – | – | – | 0^a % | unable to displace | + (+ = 30-69%) | displaces | 45 ± 5^b % | displaces | 38 ± 4^b % | low affinity | low affinity allosteric CXCR4 ligand |
